Measured values: patent US20130079499A1
Read-outs that look alike come from different tables or passages of the source. One block for each binder: values may come before it.

Assays:
[1] = target: γ-globulin formulation (KAKETSUKEN) that was a human antibody (human); assay: ELISA: human γ-globulin coated 1 µg/well, culture supernatant diluted 5x, HRP anti-His-Tag detection
[2] = target: γ-globulin formulation (KAKETSUKEN) that was a human antibody (human); assay: as above; remark: listed apart in the source
[3] = target: γ-globulin formulation (KAKETSUKEN) that was a human antibody (human); assay: batch adsorption: 3.0 mL of 10 mg/mL IgG on 0.5 mL FcRm56b-immobilised gel, PBS pH 7.0, eluted at pH 3.0, A280
[4] = target: γ-globulin formulation (KAKETSUKEN) that was a human antibody (human); assay: batch adsorption: 3.0 mL of 10 mg/mL IgG on 0.5 mL FcRm56b-immobilised gel (18.7 mg FcRm56b per mL gel), PBS pH 7.0, eluted at pH 3.0, A280
[5] = target: γ-globulin formulation (KAKETSUKEN) that was a human antibody (human); assay: column of FcRm56b-immobilised gel loaded with IgG in PBS pH 7.0; eluted with 100 mM citric acid buffer of the given pH; R=A/(A+B)x100, A280
[6] = target: γ-globulin formulation (KAKETSUKEN) that was a human antibody (human); assay: batch adsorption: 3.0 mL of 10 mg/mL IgG on 0.4 mL FcRm57b-immobilised gel, PBS pH 7.0, eluted at pH 3.0, A280
[7] = target: γ-globulin formulation (KAKETSUKEN) that was a human antibody (human); assay: batch adsorption: 3.0 mL of 10 mg/mL IgG on 0.4 mL FcRm57b-immobilised gel (14.2 mg FcRm57b per mL gel), PBS pH 7.0, eluted at pH 3.0, A280
[8] = target: γ-globulin formulation (KAKETSUKEN) that was a human antibody (human); assay: column of FcRm57b-immobilised gel loaded with IgG in PBS pH 7.0; eluted with 100 mM citric acid buffer of the given pH; R=A/(A+B)x100, A280
[9] = target: γ-globulin formulation (KAKETSUKEN) that was a human antibody (human); assay: batch adsorption: 0.5 mL of 10 mg/mL IgG on 0.1 mL FcRm32-immobilised gel, PBS pH 7.0, eluted at pH 3.0, A280
[10] = target: γ-globulin formulation (KAKETSUKEN) that was a human antibody (human); assay: batch adsorption: 0.5 mL of 10 mg/mL IgG on 0.1 mL FcRm32-immobilised gel (19.3 mg FcRm32 per mL gel), PBS pH 7.0, eluted at pH 3.0, A280
[11] = target: γ-globulin formulation (KAKETSUKEN) that was a human antibody (human); assay: column of FcRm32-immobilised gel loaded with IgG in PBS pH 7.0; eluted with 100 mM citric acid buffer of the given pH; R=A/(A+B)x100, A280
[12] = target: γ-globulin formulation (KAKETSUKEN) that was a human antibody (human); assay: batch adsorption: 0.5 mL of 10 mg/mL IgG on 0.05 mL FcRm36b-immobilised gel, PBS pH 7.0, eluted at pH 3.0, A280
[13] = target: γ-globulin formulation (KAKETSUKEN) that was a human antibody (human); assay: column of FcRm36b-immobilised gel loaded with IgG in PBS pH 7.0; eluted with 100 mM citric acid buffer of the given pH; R=A/(A+B)x100, A280
[14] = target: γ-globulin formulation (KAKETSUKEN) that was a human antibody (human); assay: batch adsorption: 0.5 mL of 10 mg/mL IgG on 0.05 mL FcRm36b-immobilised gel (21.0 mg FcRm36b per mL gel), PBS pH 7.0, eluted at pH 3.0, A280
[15] = target: γ-globulin formulation (KAKETSUKEN) that was a human antibody (human); assay: batch adsorption: 0.5 mL of 10 mg/mL IgG on 0.05 mL FcRm48-immobilised gel, PBS pH 7.0, eluted at pH 3.0, A280
[16] = target: γ-globulin formulation (KAKETSUKEN) that was a human antibody (human); assay: batch adsorption: 0.5 mL of 10 mg/mL IgG on 0.05 mL FcRm48-immobilised gel (13.6 mg FcRm48 per mL gel), PBS pH 7.0, eluted at pH 3.0, A280
[17] = target: γ-globulin formulation (KAKETSUKEN) that was a human antibody (human); assay: column of FcRm48-immobilised gel loaded with IgG in PBS pH 7.0; eluted with 100 mM citric acid buffer of the given pH; R=A/(A+B)x100, A280
[18] = target: γ-globulin formulation (KAKETSUKEN) that was a human antibody (human); assay: batch adsorption: 0.5 mL of 10 mg/mL IgG on 0.1 mL FcRm19-immobilised gel, PBS pH 7.0, eluted at pH 3.0, A280
[19] = target: γ-globulin formulation (KAKETSUKEN) that was a human antibody (human); assay: batch adsorption: 0.5 mL of 10 mg/mL IgG on 0.1 mL FcRm19-immobilised gel (23.0 mg FcRm19 per mL gel), PBS pH 7.0, eluted at pH 3.0, A280
[20] = target: γ-globulin formulation (KAKETSUKEN) that was a human antibody (human); assay: column of FcRm19-immobilised gel loaded with IgG in PBS pH 7.0; eluted with 100 mM citric acid buffer of the given pH; R=A/(A+B)x100, A280

B4: Fc binding protein FcRm32 (32 amino acids of a wild-type Fc binding protein substituted) (receptor)
chain: KIEEAMGQVDTPKAVIKLQPPWVSVFQGESVTLHCEAPHLSGSSSTQWFLNDTAIQASTPTYHITSASEDDSGEYRCQRGLSGRSDPIQLEVHRGWLLLQVSSRVLTEGEPLALRCHAWKDKLVHNVLYYHNGKAFKFFHRNSNLTIPKTNTSHSGTYHCSGMGRHRYTSAGTSVTVKELFPAPVLTASVTSPLHEGTQVTLSCETKLLLQRPGLQLYFSFYKGSKTLRGRDTSSEYQILTARREDSGLYWCEAATEDGNVLKRSPELELQVLGHQQPTPVHHHHHH
amount of eluted IgG [9]: 1.98 mg
amount of adsorbed IgG per mL of the gel (mg per mL of gel) [10]: 19.8
percentage of antibody elution at pH 3.0 [11]: 98.7%
percentage of antibody elution at pH 3.4 [11]: 99.3%
percentage of antibody elution at pH 3.8 [11]: 97.9%
percentage of antibody elution at pH 4.2 [11]: 82.8%

B5: Fc binding protein FcRm36b (36 amino acids of a wild-type Fc binding protein substituted) (receptor)
chain: KIEEAMGQVDTPKAVIKLQPPWVSVFLGESVTMHCEAPHLSGSGSTQWFLNDTAIQASTPTYHITSASEDDSGEYRCQRGLSGRSDPIQLEVHRGWLLLQVSSRVLTEGEPLALRCHAWKDKLVHNVLYYHNGKAFKFFHRNSTLTIPKTNTSHSGTYHCSGMGRHRYTSAGTSVTVKELFPAPVLTASVTSPLHEGTQVTLSCETKLLLQRPGLQLYFSFYKGSKTLRGRDTSSEYQILTARREDSGLYWCEAATEDGNVLKRSPELELQVLGHQQPTPVHHHHHH
amount of eluted IgG [12]: 1.44 mg
percentage of antibody elution at pH 3.0 [13]: 99.5%
percentage of antibody elution at pH 3.4 [13]: 99.4%
percentage of antibody elution at pH 3.8 [13]: 92.2%
percentage of antibody elution at pH 4.2 [13]: 64%
amount of adsorbed IgG per mL of the gel (mg per mL of gel) [14]: 28.8

B7: Fc binding protein FcRm19 (19 amino acids of a wild-type Fc binding protein substituted) (receptor)
chain: KIEEAMGQVDTPKAVIKLQPPWVSVFQEESVTLHCEVPHLPGSSSTQWFLNGTAIQTSTPTYHITSASEDDSGEYRCQRGLSGRSDPIQLEVHRGWLLLQVSSRVLTEGEPLALRCHAWKDKLVYNVLYYRNGKAFKFFHWNSNLTILKTNMSHSGTYHCSGMGKHRYTSAGISVTVKELFPAPVLTASVTSPLLEGTPVTLSCETKLLLQRPGLQLYFSFYMGSKTLRGRDTSSEYQILTARREDSGLYWCEAATEDGNVLKRSPELELQVLGHQQPTPVHHHHHH
amount of the eluted IgG [18]: 2.1 mg
amount of adsorbed IgG per mL of the gel (mg per mL of gel) [19]: 21
percentage of antibody elution at pH 3.0 [20]: 99.1%
percentage of antibody elution at pH 3.4 [20]: 87.4%
percentage of antibody elution at pH 3.8 [20]: 51.3%
percentage of antibody elution at pH 4.2 [20]: 22%

Next, values leading:

OD450 nm [1]: 0.22 OD450 nm
OD450 nm [2]: 0.14 OD450 nm
B1: wild-type Fc binding protein (Fc binding protein with no amino acid substitution) expressed by the pETFcR transformant (receptor)
chain: KIEEAMGQVDTTKAVITLQPPWVSVFQEETVTLHCEVLHLPGSSSTQWFLNGTATQTSTPSYRITSASVNDSGEYRCQRGLSGRSDPIQLEIHRGWLLLQVSSRVFTEGEPLALRCHAWKDKLVYNVLYYRNGKAFKFFHWNSNLTILKTNISHNGTYHCSGMGKHRYTSAGISVTVKELFPAPVLNASVTSPLLEGNLVTLSCETKLLLQRPGLQLYFSFYMGSKTLRGRNTSSEYQILTARREDSGLYWCEAATEDGNVLKRSPELELQVLGLQLPTPVHHHHHH

amount of eluted IgG [3]: 11.5 mg
amount of adsorbed IgG per mL of the gel (mg per mL of gel) [4]: 23
percentage of antibody elution at pH 3.0 [5]: 99.7%
percentage of antibody elution at pH 3.4 [5]: 99.5%
percentage of antibody elution at pH 3.8 [5]: 94.5%
percentage of antibody elution at pH 4.2 [5]: 73%
B2: Fc binding protein FcRm56b (56 amino acids of a wild-type Fc binding protein substituted) (receptor)
chain: KIEEAMGQVDTPKAVIKLQPPWVSVFLGESVTMLCEVPHLSGAGSTQWFRNDTAIQASTPTYHIASASEDDSGEYRCQRGLSGRSDPILLEVHRGWLLLQVSARVLIEGEPLVLRCHAWRDKQVHNVLFYHNGKAFKFFHRNTTLTIPRTNTSHSGTYHCSGMGRHRYTSAGTLVSVKELFPAPVLTASVASPLHEGTQVTLSCVTKLLIQRPGLQLYFSFYKGSETLRGRDTSSEYQILAARREDSGLYWCEAATEDGNVVKRSPELELQVLGHQQPTPVHHHHHH

amount of eluted IgG [6]: 6.67 mg
amount of adsorbed IgG per mL of the gel (mg per mL of gel) [7]: 16.7
percentage of antibody elution at pH 3.0 [8]: 99.3%
percentage of antibody elution at pH 3.4 [8]: 99.6%
percentage of antibody elution at pH 3.8 [8]: 90.2%
percentage of antibody elution at pH 4.2 [8]: 66.2%
B3: Fc binding protein FcRm57b (57 amino acids of a wild-type Fc binding protein substituted) (receptor)
chain: KIEEAMGQVDTPKAVIKLQPPWVSVFLGESVTMLCEVPHLSGAGSTQWFRNDTAIQASTPTFHIASASEDDSGEYRCQRGLSGRSDPILLEVHRGWLLLQVSARVLIEGEPLVLRCHAWRDKLVHNVLFYHNGKAFKFFHRNTTLTIPRTNTSHSGTYHCSGMGRHRYTSAGTLVSVKELFPAPVLTASVASPLLEGTPVTLSCVTKLLIQRPGLQLYFSFFKGGETLRGRDTSSEYQILAARREDSGLYWCEAATEDGNVVKRSPELELQVLGHQQPTPVHHHHHH

amount of eluted IgG [15]: 0.94 mg
amount of adsorbed IgG per mL of the gel (mg per mL of gel) [16]: 18.8
percentage of antibody elution at pH 3.0 [17]: 99.2%
percentage of antibody elution at pH 3.4 [17]: 100%
percentage of antibody elution at pH 3.8 [17]: 98.2%
percentage of antibody elution at pH 4.2 [17]: 81.9%
B6: Fc binding protein FcRm48 (48 amino acids of a wild-type Fc binding protein substituted) (receptor)
chain: KIEEAMGQVDTPKAVIKLQPPWVSVFLGESVTMHCEAPHLSGTGSTQWFLNDTAIQASTPTYHITSASEDDSGEYRCQRGLSGRSDPILLEVHRGWLLLQVSSRVLTEGEPLALRCHAWRDKQVHNVLFYHNGKAFKFFHRNSTLTIPRTNTSHSGTYHCSGMGRHRYTSAGTLVSVKELFPAPVLTASVTSPLHEGTQVTLSCVTKLLIQRPGLQLYFSFYKGSKTLRGRDTSSEYQILAARREDSGLYWCVAATEDGNVLKRSPELELQVLGHQQPTPVHHHHHH
